From publication PMC10592355

Experiments:
[1] = test system: TyrRS K244Q (Homo sapiens); assay: filter binding; conditions: Filter binding: 10 mM HEPES pH 7.5, 4 mM KCl, 0.02 mg/mL BSA, 0.2 mM DTT, 30 min RT, TyrRS 125 nM to 8 uM, wash 60 mM HEPES pH 7.5, 10 mM MgCl2; EMSA …
[2] = test system: TyrRS WT (Homo sapiens); assay: filter binding; conditions: Filter binding: 10 mM HEPES pH 7.5, 4 mM KCl, 0.02 mg/mL BSA, 0.2 mM DTT, 30 min RT, TyrRS 125 nM to 8 uM, wash 60 mM HEPES pH 7.5, 10 mM MgCl2; EMSA …

For human tRNATyr transcript, the Kd [1] was 1180 nM and the Kd [2] was 849 nM.
